Assay results taken from US20210355227A1 (Regeneron, published 2021).
Substitutions are numbered along the chain they refer to.

How the values were obtained:
[1] = target: full-length human GLP1R on HEK293/CRE-luc/GLP1R cells (human, UniProt P43220 24-463); assay: cell-based or functional assay
[2] = target: T1, in-line fusion protein of human desA-GLP1 and GLP1R-MMH (human); assay: SPR Biacore 4000, mAb captured by anti-human Fc, 37 C
T1 construct: also called hdesA-GLP1_GLP1R-MMH
T1 chain: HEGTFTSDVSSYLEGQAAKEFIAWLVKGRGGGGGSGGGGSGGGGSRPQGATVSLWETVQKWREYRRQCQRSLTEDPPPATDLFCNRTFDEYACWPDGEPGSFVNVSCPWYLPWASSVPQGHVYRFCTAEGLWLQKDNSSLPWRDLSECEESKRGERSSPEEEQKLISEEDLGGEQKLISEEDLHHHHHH
Experimental: (§1) The equilibrium dissociation constant (KD) for GLP1R binding to selected GLP1R monoclonal antibodies (mAbs) was determined using a real-time surface plasmon resonance biosensor using a Biacore 4000 instrument. All binding studies were performed in 10 mM HEPES, 150 mM NaCl, 3 mM EDTA, and 0.05% v/v Surfactant Tween-20, pH 7.4 (HBS-ET) running buffer at 25° C. and 37° C. The Biacore CM5 sensor chip surface was first derivatized by amine coupling with human Fc specific mouse mAb to capture different GLP1R mAbs. […] At the end of each cycle, the GLP1R mAb capture surface was regenerated using a 12 sec injection of 20 mM phosphoric acid.
(§2) The association rate (kₐ) and dissociation rate (kd) were determined by fitting the real-time binding sensorgrams to a 1:1 binding model with mass transport limitation using Scrubber 2.0 c curve-fitting software.

[3] = target: T2, human GLP1R expressed with mouse IgG2a Fc (human); assay: as above
T2 construct: It is probably the N-terminal region, as for hGLP1R-MMH, but the sentence is ambiguous; also called hGLP1R-mFc
T2 chain: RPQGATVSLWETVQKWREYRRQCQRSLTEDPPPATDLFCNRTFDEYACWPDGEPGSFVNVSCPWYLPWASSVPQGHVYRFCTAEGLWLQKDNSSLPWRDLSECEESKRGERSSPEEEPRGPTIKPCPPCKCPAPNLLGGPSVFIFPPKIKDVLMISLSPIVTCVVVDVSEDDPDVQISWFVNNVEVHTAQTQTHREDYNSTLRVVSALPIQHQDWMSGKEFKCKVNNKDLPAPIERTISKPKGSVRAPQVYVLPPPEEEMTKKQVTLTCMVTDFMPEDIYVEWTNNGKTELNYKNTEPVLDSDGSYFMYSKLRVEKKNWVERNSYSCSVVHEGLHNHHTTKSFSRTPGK
Experimental: as §1
(§3) The association rate (kₐ) and dissociation rate (kd) were determined by fitting the real-time binding sensorgrams to a 1:1 binding model with mass transport limitation using Scrubber 2.0 c curve-fitting software. Binding dissociation equilibrium constant (KD) and dissociative half-life (t½) were calculated from the kinetic rates as:

[4] = target: T1, in-line fusion protein of human …; assay: SPR Biacore 4000, mAb captured by anti-human Fc, 25 C
Experimental: as §1, §3

[5] = target: T3, macaca fascicularis GLP1R-MMH (macaca fascicularis); assay: as above
T3 construct: also called mfGLP1R-MMH; monomeric cynomolgus GLP1R
T3 chain: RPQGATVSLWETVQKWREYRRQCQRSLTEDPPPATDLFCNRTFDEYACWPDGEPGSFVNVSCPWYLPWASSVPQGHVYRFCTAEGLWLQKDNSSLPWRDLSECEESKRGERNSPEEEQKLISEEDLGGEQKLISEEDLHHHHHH
Experimental: as §1, §2

[6] = target: T4, N-terminal region of human GLP1R-MMH (human); assay: as above
T4 construct: also called hGLP1R-MMH
T4 chain: T3 chain with N112S
Experimental: as §1, §2

[7] = target: T2, human GLP1R expressed with mouse IgG2a …; assay: as above
Experimental: as §1, §3

[8] = target: T5, mouse GLP1R-MMH (mouse); assay: SPR Biacore 4000, mAb captured by anti-human Fc, 37 C
T5 construct: It was injected at 100 nM only; also called mGLP1R-MMH; monomeric mouse GLP1R
T5 chain: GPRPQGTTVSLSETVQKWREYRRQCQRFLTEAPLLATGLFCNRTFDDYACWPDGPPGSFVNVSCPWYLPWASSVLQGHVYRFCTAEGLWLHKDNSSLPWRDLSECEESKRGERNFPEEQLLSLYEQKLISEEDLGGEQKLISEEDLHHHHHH
Experimental: as §1, §3

[9] = target: T5, mouse GLP1R-MMH; assay: SPR Biacore 4000, mAb captured by anti-human Fc, 25 C
Experimental: as §1, §3

[10] = target: T4, N-terminal region of human GLP1R-MMH; assay: SPR Biacore 4000, mAb captured by anti-human Fc, 37 C
Experimental: as §1, §2

[11] = target: T3, macaca fascicularis GLP1R-MMH; assay: as above
Experimental: as §1, §2

B1: mAb37645 (antibody, human IgG4 S228P, kappa, V domains shown)
VH: QVRLQQWGAGLLKPSETLSLTCAVYGGSFSGYFWSWIRQPPGKGLEWIGEINHGGNTNSNPSLKSRVTISVDTSKNQFSLKLSAVIAADTAVYYCARGQYRSGGGYWYFDLWGRGTLVTVSS
VL: EIVLTQSPGTLSLSPGERATLSCRASQSISSVHLAWYQQKPGQAPRLLIYGASSRATGIPDRFSGSGSETDFTLTVSRLEPDDFTMYYCQQYGSSPWTFGQGTKVEIKR
notes: In SPR the mAbs were captured by a human-Fc-specific antibody
Question: Which results are given for B1?
Answer: % Inhibition of human GLP1R activation by 40 pM GLP1 (CRE-luciferase reporter) [1]: 73%; IC50 [M] of inhibition of human GLP1R activation by 40 pM GLP1 (CRE-luciferase reporter) [1]: 1.23e-09 M; 100 nM hdesA-GLP1_GLP1R-MMH Bound (RU) [2]: 71 RU; Kd [2]: 0.0165 µM; koff [2]: 0.00229 s⁻¹; kon [2]: 139000 M⁻¹ s⁻¹; t½ [2]: 5 min; 100 nM hGLP1R-mFc Bound (RU) [3]: 116 RU; Kd [3]: 0.00259 µM; koff [3]: 0.00065 s⁻¹; kon [3]: 251000 M⁻¹ s⁻¹; t½ [3]: 18 min; 100 nM hdesA-GLP1_GLP1R-MMH Bound (RU) [4]: 58 RU; Kd [4]: 0.00432 µM; koff [4]: 0.00052 s⁻¹; kon [4]: 120000 M⁻¹ s⁻¹; t½ [4]: 22 min; 100 nM mfGLP1R-MMH Bound (RU) [5]: 35 RU; Kd [5]: 0.0196 µM; koff [5]: 0.000826 s⁻¹; kon [5]: 42200 M⁻¹ s⁻¹; t½ [5]: 14 min; 100 nM hGLP1R-MMH Bound (RU) [6]: 60 RU; Kd [6]: 0.00572 µM; koff [6]: 0.000866 s⁻¹; kon [6]: 152000 M⁻¹ s⁻¹; t½ [6]: 13 min; 100 nM hGLP1R-mFc Bound (RU) [7]: 91 RU; Kd [7]: 0.00142 µM; koff [7]: 0.000183 s⁻¹; kon [7]: 128000 M⁻¹ s⁻¹; t½ [7]: 63 min; 100 nM mGLP1R-MMH Bound (RU) [8]: 42 RU; Kd [8]: 0.0298 µM; koff [8]: 0.00249 s⁻¹; kon [8]: 83600 M⁻¹ s⁻¹; t½ [8]: 4.6 min; 100 nM mGLP1R-MMH Bound (RU) [9]: 30 RU; Kd [9]: 0.0108 µM; koff [9]: 0.000617 s⁻¹; kon [9]: 56900 M⁻¹ s⁻¹; t½ [9]: 19 min; 100 nM hGLP1R-MMH Bound (RU) [10]: 70 RU; Kd [10]: 0.018 µM; koff [10]: 0.00349 s⁻¹; kon [10]: 195000 M⁻¹ s⁻¹; t½ [10]: 3.3 min; 100 nM mfGLP1R-MMH Bound (RU) [11]: 42 RU; Kd [11]: 0.0552 µM; koff [11]: 0.00384 s⁻¹; kon [11]: 69500 M⁻¹ s⁻¹; t½ [11]: 3 min
